# Assay results as given in PMC9164399, “The PRMT5-LSD1 axis confers Slug dual transcriptional activities and promotes breast cancer progression” (Journal of Experimental & Clinical Cancer Research : CR, 2022).
# B1: GST-fused Slug (natural protein, human, UniProt O43623 1-268, looked up)
# chain: MPRSFLVKKHFNASKKPNYSELDTHTVIISPYLYESYSMPVIPQPEILSSGAYSPITVWTTAAPFHAQLPNGLSPLSGYSSSLGRVSPPPPSDTSSKDHSGSESPISDEEERLQSKLSDPHAIEAEKFQCNLCNKTYSTFSGLAKHKQLHCDAQSRKSFSCKYCDKEYVSLGALKMHIRTHTLPCVCKICGKAFSRPWLLQGHIRTHTGEKPFSCPHCNRAFADRSNLRAHLQTHSDVKKYQCKNCSKTFSRMSLLHKHEESGCCVAH
# notes: Slug (SNAI2), cDNA in the bacterial expression vector pGEX-KG; also called GST-Slug
# B2: Flag-Slug (natural protein)
# chain: MPRSFLVKKHFNASKKPNYSELDTHTVIISPYLYESYSMPVIPQPEILSSGAYSPITVWTTAAPFHAQLPNGLSPLSGYSSSLGRVSPPPPSDTSSKDHSGSESPISDEEERLQSKLSDPHAIEAEKFQCNLCNKTYSTFSGLAKHKQLHCDAQSRKSFSCKYCDKEYVSLGALKMHIRTHTLPCVCKICGKAFSRPWLLQGHIRTHTGEKPFSCPHCNRAFADRSNLRAHLQTHSDVKKYQCKNCSKTFSRMSLLHKHEESGCCVAH
# notes: Slug (SNAI2), wild-type cDNA in lentiviral vector CD532A; 268 aa by the printed limits of the fragments; also called Flag-tagged Slug-FL; Flag-tagged Slug; source: HEK293T, expressed, in lysate; purified from HEK293T cells (for the GST pull-down)
# What was measured:
# Flag-PRMT5 = molecular target: T1, Flag-PRMT5 (human, UniProt O14744 1-637); test: pull-down; GST fusion proteins on glutathione-Sepharose 4B beads mixed with Flag-tagged proteins purified from HEK293T cells, 2 h at 4 °C; washed with 50 mM Tris-HCl pH 8.0, 0.2% NP-40, 150 mM NaCl, 2 mM EDTA; immunoblot; conditions: both partners purified
# T1 construct: Protein arginine methyltransferase 5 (PRMT5), wild-type cDNA in lentiviral vector CD532A; 637 aa by the printed domain limits; also called Flag-tagged full-length (FL) PRMT5; PRMT5-FL; source: HEK293T, co-expressed, in lysate; purified from HEK293T cells (for the GST pull-down)
# T1 sequence (O14744 whole entry, the tested form may be a part): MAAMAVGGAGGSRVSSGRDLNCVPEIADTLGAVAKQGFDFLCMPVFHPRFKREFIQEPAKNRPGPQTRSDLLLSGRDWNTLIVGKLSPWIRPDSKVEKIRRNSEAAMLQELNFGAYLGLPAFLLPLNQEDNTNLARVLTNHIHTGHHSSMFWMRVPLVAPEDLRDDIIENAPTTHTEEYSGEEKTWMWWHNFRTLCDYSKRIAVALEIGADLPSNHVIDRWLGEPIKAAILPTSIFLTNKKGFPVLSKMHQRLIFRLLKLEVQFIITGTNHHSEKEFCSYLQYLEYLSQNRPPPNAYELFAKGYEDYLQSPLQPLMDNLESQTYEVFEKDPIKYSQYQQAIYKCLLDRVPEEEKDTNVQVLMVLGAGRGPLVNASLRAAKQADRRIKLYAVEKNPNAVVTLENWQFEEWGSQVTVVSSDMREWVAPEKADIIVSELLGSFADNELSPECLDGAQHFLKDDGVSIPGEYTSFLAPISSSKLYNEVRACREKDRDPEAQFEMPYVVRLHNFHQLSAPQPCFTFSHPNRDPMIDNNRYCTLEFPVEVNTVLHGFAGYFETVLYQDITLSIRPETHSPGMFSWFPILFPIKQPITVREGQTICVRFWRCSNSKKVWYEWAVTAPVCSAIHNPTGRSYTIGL
# GST-fused LSD1 = GST-fused LSD1 (human, UniProt O60341-2 1-876); test: as above; conditions: both partners purified
Binder,binding result (Flag-PRMT5),binding result (GST-fused LSD1)
B1,binds,–
B2,–,binds
